Test results reported in IntAct's records for PubMed 31515488.

B1: G-patch domain and KOW motifs-containing protein (Homo sapiens), Q92917 (parent)
chain: MADSKEGVLPLTAASTAPISFGFTRTSARRRLADSGDGAGPSPEEKDFLKTVEGRELQSVKPQEAPKELVIPLIQNGHRRQPPARPPGPSTDTGALADGVVSQAVKELIAESKKSLEERENAGVDPTLAIPMIQKGCTPSGEGADSEPRAETVPEEANYEAVPVEAYGLAMLRGMGWKPGEGIGRTFNQVVKPRVNSLRPKGLGLGANLTEAQALTPTGPSRMPRPDEEQEKDKEDQPQGLVPGGAVVVLSGPHRGLYGKVEGLDPDNVRAMVRLAVGSRVVTVSEYYLRPVSQQEFDKNTLDLRQQNGTASSRKTLWNQELYIQQDNSERKRKHLPDRQDGPAAKSEKAAPRSQHWLHRDLRVRFVDNMYKGGQYYNTKMIIEDVLSPDTCVCRTDEGRVLEGLREDMLETLVPKAEGDRVMVVLGPQTGRVGHLLSRDRARSRALVQLPRENQVVELHYDAICQYMGPSDTDDD
B2: Pre-mRNA-splicing factor SPF27 (Homo sapiens), O75934 (parent)
chain: MAGTGLVAGEVVVDALPYFDQGYEAPGVREAAAALVEEETRRYRPTKNYLSYLTAPDYSAFETDIMRNEFERLAARQPIELLSMKRYELPAPSSGQKNDITAWQECVNNSMAQLEHQAVRIENLELMSQHGCNAWKVYNENLVHMIEHAQKELQKLRKHIQDLNWQRKNMQLTAGSKLREMESNWVSLVSKNYEIERTIVQLENEIYQIKQQHGEANKENIRQDF
B3: E3 ubiquitin-protein ligase Midline-1 (Homo sapiens), O15344 (parent)
chain: METLESELTCPICLELFEDPLLLPCAHSLCFNCAHRILVSHCATNESVESITAFQCPTCRHVITLSQRGLDGLKRNVTLQNIIDRFQKASVSGPNSPSETRRERAFDANTMTSAEKVLCQFCDQDPAQDAVKTCVTCEVSYCDECLKATHPNKKPFTGHRLIEPIPDSHIRGLMCLEHEDEKVNMYCVTDDQLICALCKLVGRHRDHQVAALSERYDKLKQNLESNLTNLIKRNTELETLLAKLIQTCQHVEVNASRQEAKLTEECDLLIEIIQQRRQIIGTKIKEGKVMRLRKLAQQIANCKQCIERSASLISQAEHSLKENDHARFLQTAKNITERVSMATASSQVLIPEINLNDTFDTFALDFSREKKLLECLDYLTAPNPPTIREELCTASYDTITVHWTSDDEFSVVSYELQYTIFTGQANVVSLCNSADSWMIVPNIKQNHYTVHGLQSGTKYIFMVKAINQAGSRSSEPGKLKTNSQPFKLDPKSAHRKLKVSHDNLTVERDESSSKKSHTPERFTSQGSYGVAGNVFIDSGRHYWEVVISGSTWYAIGLAYKSAPKHEWIGKNSASWALCRCNNNWVVRHNSKEIPIEPAPHLRRVGILLDYDNGSIAFYDALNSIHLYTFDVAFAQPVCPTFTVWNKCLTIITGLPIPDHLDCTEQLP
B4: Zinc finger protein 544 (Homo sapiens), Q6NX49 (parent)
chain: MEARSMLVPPQASVCFEDVAMAFTQEEWEQLDLAQRTLYREVTLETWEHIVSLGLFLSKSDVISQLEQEEDLCRAEQEAPRDWKATLEENRLNSEKDRAREELSHHVEVYRSGPEEPPSLVLGKVQDQSNQLREHQENSLRFMVLTSERLFAQREHCELELGGGYSLPSTLSLLPTTLPTSTGFPKPNSQVKELKQNSAFINHEKNGADGKHCESHQCARAFCQSIYLSKLGNVETGKKNPYEYIVSGDSLNYGSSLCFHGRTFSVKKSDDCKDYGNLFSHSVSLNEQKPVHFGKSQYECDECRETCSESLCLVQTERSGPGETPFRCEERCAAFPMASSFSDCNIIQTTEKPSVCNQCGKSFSCCKLIHQRTHTGEKPFECTQCGKSFSQSYDLVIHQRTHTGEKPYECDLCGKSFTQRSKLITHQRIHTGEKPYQCIECRKSFRWNSNLIVHQRIHTGEKPYECTHCGKSFSQSYELVTHKRTHTGEKPFKCTQCGKSFSQKYDLVVHQRTHTGEKPYECNLCGKSFSQSSKLITHQRIHTGEKPYQCIECGKSFRWNSNLVIHQRIHTGEKPYDCTHCGKSFSQSYQLVAHKRTHTGEKPYECNECGKAFNRSTQLIRHLQIHTGEKPYKCNQCNKAFARSSYLVMHQRTHTGEKPFECSQCGKAFSGSSNLLSHHRIHSGEKPYECSDCGKSFRQQSQLVVHRRTHTGEKP
partner: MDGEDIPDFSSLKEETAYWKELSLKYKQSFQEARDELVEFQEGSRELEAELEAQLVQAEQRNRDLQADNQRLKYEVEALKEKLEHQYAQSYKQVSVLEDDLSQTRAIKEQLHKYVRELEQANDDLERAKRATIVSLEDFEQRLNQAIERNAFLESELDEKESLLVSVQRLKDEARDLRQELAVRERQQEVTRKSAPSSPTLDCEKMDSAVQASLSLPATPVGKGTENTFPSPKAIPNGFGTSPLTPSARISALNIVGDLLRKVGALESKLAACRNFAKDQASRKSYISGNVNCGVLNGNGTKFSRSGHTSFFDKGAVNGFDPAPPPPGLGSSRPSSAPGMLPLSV
B5: Coiled-coil domain-containing protein 185 (Homo sapiens), Q8N715 (parent)
chain: MAGFSHFSQPPYRDLWEPPRPGGERESTQRLGGQRSGADSTACSRAGTPGAESEAGACWLHPHCSFTPRPRRRGCSDSLRGSRSLSDVARRPLERSRKHRPRSRRLEDAWGETGTKPRPAWQPQTQLPPQRPQPCPHYPLAQGDSPPPCPGGAGTPLSGTFRVEKAQGGDQWAVPLGRHLGRWSPSSVPSERSSVPSQKFKRHSACVCAQKRDSSDQVESLASRDSQPLASSKEMRSPHTQVLKSKLEEVVVSSQDQQIVALVLTRLKKAQRIRELQQQAAKAWEELKRSDQKVQMTLERERRLLLRQSQEQWQEKEQRKTLQSPEQRGLRRDSQRKNVPPGESRWKEQPEDQESPRQEKLEKARAQAEHRKQCQVRRLREQEKMLRNLREQHSLQLQRRLVEACRKRHLHAVEGQKKVQDTNLSSLINYQARKVLMDCQAKAEELLRQLSLEQSFQRSQEIHQGLRKERQRELREKAQKEEEQLQQARWRAGESEEQRKMRKRILVELADEKIRQARSHVHKTTRDKVQHLRELNHLREKNHHILKLKAEKEEKCHIEGIKEAIKKKEQRVQHISQGKDPNFQEFQKLPQASRREERAPPNSSLDQMVLEAQLRACQQNRGY

Variants of: B1
Details: with tri23_human TRIM23, P36406
tri23_human TRIM23, P36406, sequence (P36406 whole entry): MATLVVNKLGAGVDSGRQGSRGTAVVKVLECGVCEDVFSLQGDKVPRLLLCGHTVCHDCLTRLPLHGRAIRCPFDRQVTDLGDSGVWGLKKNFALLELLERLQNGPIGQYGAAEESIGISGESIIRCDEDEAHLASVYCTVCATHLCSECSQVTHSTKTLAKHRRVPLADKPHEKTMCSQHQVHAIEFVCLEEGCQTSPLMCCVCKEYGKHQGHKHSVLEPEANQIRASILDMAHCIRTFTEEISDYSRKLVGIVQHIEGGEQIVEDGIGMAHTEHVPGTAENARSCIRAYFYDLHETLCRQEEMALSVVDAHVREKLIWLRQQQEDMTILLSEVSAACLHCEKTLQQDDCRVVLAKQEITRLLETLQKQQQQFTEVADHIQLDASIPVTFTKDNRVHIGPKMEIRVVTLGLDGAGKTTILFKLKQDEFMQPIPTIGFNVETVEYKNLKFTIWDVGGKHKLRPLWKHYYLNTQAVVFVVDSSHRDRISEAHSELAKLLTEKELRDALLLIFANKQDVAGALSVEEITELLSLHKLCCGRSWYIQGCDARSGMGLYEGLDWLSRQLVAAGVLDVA
In the case of A129T, the “effect of a mutation on the interaction” value is reported as “with no effect”. In the case of V393A, the “effect of a mutation on the interaction” value is reported as “with no effect”.

Variants of: B1
Details: with traf2_human TRAF2, Q12933
traf2_human TRAF2, Q12933, sequence (Q12933 whole entry): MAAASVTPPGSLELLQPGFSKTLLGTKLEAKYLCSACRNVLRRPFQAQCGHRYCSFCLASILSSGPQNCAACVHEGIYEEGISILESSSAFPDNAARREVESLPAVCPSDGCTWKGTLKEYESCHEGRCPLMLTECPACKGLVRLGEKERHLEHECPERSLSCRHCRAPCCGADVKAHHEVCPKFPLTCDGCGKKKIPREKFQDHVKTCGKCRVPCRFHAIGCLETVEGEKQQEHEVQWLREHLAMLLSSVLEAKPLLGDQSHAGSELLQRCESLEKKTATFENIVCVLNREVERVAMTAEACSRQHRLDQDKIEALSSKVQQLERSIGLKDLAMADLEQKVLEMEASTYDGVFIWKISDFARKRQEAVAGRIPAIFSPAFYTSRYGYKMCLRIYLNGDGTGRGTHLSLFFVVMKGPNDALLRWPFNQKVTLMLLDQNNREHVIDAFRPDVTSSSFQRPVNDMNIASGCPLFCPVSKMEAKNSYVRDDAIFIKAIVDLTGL
With A129T the “effect of a mutation on the interaction” value was “with no effect”. In the case of V393A, the “effect of a mutation on the interaction” value is reported as “with no effect”.

Variants of: B2
Details: with itf2_human TCF4, P15884
itf2_human TCF4, P15884, sequence (P15884 whole entry): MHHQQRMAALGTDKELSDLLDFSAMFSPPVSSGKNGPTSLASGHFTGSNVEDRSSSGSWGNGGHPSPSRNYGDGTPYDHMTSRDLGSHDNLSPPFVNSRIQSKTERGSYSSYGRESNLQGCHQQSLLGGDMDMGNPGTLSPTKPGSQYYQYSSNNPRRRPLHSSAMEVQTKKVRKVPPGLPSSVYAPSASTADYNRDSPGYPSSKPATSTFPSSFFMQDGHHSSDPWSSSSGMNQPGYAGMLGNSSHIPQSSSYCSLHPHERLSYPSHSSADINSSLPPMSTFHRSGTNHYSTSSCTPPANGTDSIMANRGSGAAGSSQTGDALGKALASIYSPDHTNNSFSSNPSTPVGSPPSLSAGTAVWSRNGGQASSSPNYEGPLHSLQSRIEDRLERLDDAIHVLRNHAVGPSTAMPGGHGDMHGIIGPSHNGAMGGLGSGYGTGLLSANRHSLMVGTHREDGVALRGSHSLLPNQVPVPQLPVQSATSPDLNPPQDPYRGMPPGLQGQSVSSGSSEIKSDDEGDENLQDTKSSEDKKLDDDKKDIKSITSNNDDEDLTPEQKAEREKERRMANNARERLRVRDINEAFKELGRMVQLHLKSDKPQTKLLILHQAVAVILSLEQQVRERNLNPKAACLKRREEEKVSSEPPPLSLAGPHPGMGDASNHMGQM
N139S was tested, and the “effect of a mutation on the interaction” value was “with no effect”.

Variants of: B2
Details: with hgs_human HGS
With N139S the “effect of a mutation on the interaction” value was “with no effect”.

Variants of: B2
Details: with ikzf3_human IKZF3, Q9UKT9
ikzf3_human IKZF3, Q9UKT9, sequence (Q9UKT9 whole entry): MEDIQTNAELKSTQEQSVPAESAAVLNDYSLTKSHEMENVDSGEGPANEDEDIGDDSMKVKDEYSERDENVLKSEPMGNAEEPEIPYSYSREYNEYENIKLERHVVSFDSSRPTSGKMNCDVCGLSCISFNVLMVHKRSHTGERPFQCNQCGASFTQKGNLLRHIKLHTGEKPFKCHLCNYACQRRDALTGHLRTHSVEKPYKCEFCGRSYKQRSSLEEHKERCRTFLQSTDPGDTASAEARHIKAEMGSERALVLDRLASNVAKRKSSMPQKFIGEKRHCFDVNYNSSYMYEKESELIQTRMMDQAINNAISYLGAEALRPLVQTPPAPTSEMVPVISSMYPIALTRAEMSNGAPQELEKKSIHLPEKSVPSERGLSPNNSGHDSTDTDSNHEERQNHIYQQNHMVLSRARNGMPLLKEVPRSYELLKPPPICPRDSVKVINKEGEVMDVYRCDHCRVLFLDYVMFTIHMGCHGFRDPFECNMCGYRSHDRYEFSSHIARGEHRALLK
In the case of N139S, the “effect of a mutation on the interaction” value is reported as “with no effect”.

Variants of: B3
Details: with meox1_human MEOX1, P50221
meox1_human MEOX1, P50221, sequence (P50221 whole entry): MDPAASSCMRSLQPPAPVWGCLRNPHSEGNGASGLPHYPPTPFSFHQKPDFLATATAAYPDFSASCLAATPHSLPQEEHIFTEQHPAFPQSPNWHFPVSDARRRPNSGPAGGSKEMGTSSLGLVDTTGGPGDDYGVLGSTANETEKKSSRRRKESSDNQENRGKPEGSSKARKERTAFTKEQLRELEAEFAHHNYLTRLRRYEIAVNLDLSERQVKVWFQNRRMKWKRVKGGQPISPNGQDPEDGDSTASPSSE
With D84N the “effect of a mutation on the interaction” value was “with no effect”.

Variants of: B3
Details: with echp_human EHHADH
In the case of D84N, the “effect of a mutation on the interaction” value is reported as “with no effect”.

Variants of: B3
Details: with ub2d3_human UBE2D3, P61077
ub2d3_human UBE2D3, P61077, sequence (P61077 whole entry): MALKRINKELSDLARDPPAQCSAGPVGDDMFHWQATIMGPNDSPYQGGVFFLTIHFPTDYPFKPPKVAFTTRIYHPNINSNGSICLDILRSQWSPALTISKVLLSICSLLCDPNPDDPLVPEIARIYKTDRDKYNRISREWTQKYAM
In the case of D84N, the “effect of a mutation on the interaction” value is reported as “with no effect”.

Variants of: B3
Details: with ub2e2_human UBE2E2, Q96LR5
ub2e2_human UBE2E2, Q96LR5, sequence (Q96LR5 whole entry): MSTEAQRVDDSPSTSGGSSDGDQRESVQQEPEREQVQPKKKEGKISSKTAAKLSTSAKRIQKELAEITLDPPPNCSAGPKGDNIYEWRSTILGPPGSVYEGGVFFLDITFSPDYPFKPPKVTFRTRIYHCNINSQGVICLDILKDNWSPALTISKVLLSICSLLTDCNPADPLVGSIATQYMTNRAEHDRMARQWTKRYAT
D84N was tested, and the “effect of a mutation on the interaction” value was “with no effect”.

Variants of: B4
Details: with ndel1_human NDEL1, Q9GZM8
For K406M, the “effect of a mutation on the interaction” value was “with no effect”.

Variants of: B5
Details: with KRT15, P19012
KRT15, P19012, sequence (P19012 whole entry): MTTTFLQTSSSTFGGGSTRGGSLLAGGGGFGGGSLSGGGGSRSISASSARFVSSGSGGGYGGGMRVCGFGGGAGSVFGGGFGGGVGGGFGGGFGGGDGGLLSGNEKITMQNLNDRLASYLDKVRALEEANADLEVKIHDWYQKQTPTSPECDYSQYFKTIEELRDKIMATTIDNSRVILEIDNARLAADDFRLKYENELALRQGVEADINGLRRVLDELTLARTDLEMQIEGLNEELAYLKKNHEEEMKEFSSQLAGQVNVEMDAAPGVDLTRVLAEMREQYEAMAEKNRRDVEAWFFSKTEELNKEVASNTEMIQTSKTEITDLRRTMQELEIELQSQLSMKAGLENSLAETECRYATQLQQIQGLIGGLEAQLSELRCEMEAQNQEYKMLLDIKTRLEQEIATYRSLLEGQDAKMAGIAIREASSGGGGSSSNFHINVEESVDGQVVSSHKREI
In the case of S603G, the “effect of a mutation on the interaction” value is reported as “with no effect”.
